Reference: article PMC6193622, “Identification of UHRF2 as a novel DNA interstrand crosslink sensor protein” (PLoS Genetics, 2018)

B1: 6xHis-UHRF2 purified from Sf9 cells (natural protein, human, UniProt Q96PU4 1-802, looked up)
chain: MWIQVRTIDGSKTCTIEDVSRKATIEELRERVWALFDVRPECQRLFYRGKQLENGYTLFDYDVGLNDIIQLLVRPDPDHLPGTSTQIEAKPCSNSPPKVKKAPRVGPSNQPSTSARARLIDPGFGIYKVNELVDARDVGLGAWFEAHIHSVTRASDGQSRGKTPLKNGSSCKRTNGNIKHKSKENTNKLDSVPSTSNSDCVAADEDVIYHIQYDEYPESGTLEMNVKDLRPRARTILKWNELNVGDVVMVNYNVESPGQRGFWFDAEITTLKTISRTKKELRVKIFLGGSEGTLNDCKIISVDEIFKIERPGAHPLSFADGKFLRRNDPECDLCGGDPEKKCHSCSCRVCGGKHEPNMQLLCDECNVAYHIYCLNPPLDKVPEEEYWYCPSCKTDSSEVVKAGERLKMSKKKAKMPSASTESRRDWGRGMACVGRTRECTIVPSNHYGPIPGIPVGSTWRFRVQVSEAGVHRPHVGGIHGRSNDGAYSLVLAGGFADEVDRGDEFTYTGSGGKNLAGNKRIGAPSADQTLTNMNRALALNCDAPLDDKIGAESRNWRAGKPVRVIRSFKGRKISKYAPEEGNRYDGIYKVVKYWPEISSSHGFLVWRYLLRRDDVEPAPWTSEGIERSRRLCLRLQYPAGYPSDKEGKKPKGQSKKQPSGTTKRPISDDDCPSASKVYKASDSAEAIEAFQLTPQQQHLIREDCQNQKLWDEVLSHLVEGPNFLKKLEQSFMCVCCQELVYQPVTTECFHNVCKDCLQRSFKAQVFSCPACRHDLGQNYIMIPNEILQTLLDLFFPGYSKGR
notes: UHRF2, human; also called 6xHis-tagged UHRF2; source: Sf9, purified
B2: Flag-UHRF1 wild type purified from Sf9 cells (natural protein, human, UniProt Q96T88-2 1-806, looked up)
chain: MGVFAVPPLSSDTMWIQVRTMDGRQTHTVDSLSRLTKVEELRRKIQELFHVEPGLQRLFYRGKQMEDGHTLFDYEVRLNDTIQLLVRQSLVLPHSTKERDSELSDTDSGCCLGQSESDKSSTHGEAAAETDSRPADEDMWDETELGLYKVNEYVDARDTNMGAWFEAQVVRVTRKAPSRDEPCSSTSRPALEEDVIYHVKYDDYPENGVVQMNSRDVRARARTIIKWQDLEVGQVVMLNYNPDNPKERGFWYDAEISRKRETRTARELYANVVLGDDSLNDCRIIFVDEVFKIERPGEGSPMVDNPMRRKSGPSCKHCKDDVNRLCRVCACHLCGGRQDPDKQLMCDECDMAFHIYCLDPPLSSVPSEDEWYCPECRNDASEVVLAGERLRESKKKAKMASATSSSQRDWGKGMACVGRTKECTIVPSNHYGPIPGIPVGTMWRFRVQVSESGVHRPHVAGIHGRSNDGAYSLVLAGGYEDDVDHGNFFTYTGSGGRDLSGNKRTAEQSCDQKLTNTNRALALNCFAPINDQEGAEAKDWRSGKPVRVVRNVKGGKNSKYAPAEGNRYDGIYKVVKYWPEKGKSGFLVWRYLLRRDDDEPGPWTKEGKDRIKKLGLTMQYPEGYLEALANREREKENSKREEEEQQEGGFASPRTGKGKWKRKSAGGGPSRAGSPRRTSKKTKVEPYSLTAQQSSLIREDKSNAKLWNEVLASLKDRPASGSPFQLFLSKVEETFQCICCQELVFRPITTVCQHNVCKDCLDRSFRAQVFSCPACRYDLGRSYAMQVNQPLQTVLNQLFPGYGNGR
notes: UHRF1, human, wild type; the deletion limits printed for its mutants run to residue 806, so the 806-residue isoform is meant; also called wild type UHRF1; Flag-tagged wild type UHRF1; source: Sf9, purified
B3: Flag-UHRF1 with the UBL domain deleted (natural protein, human, UniProt Q96T88-2 1-806, looked up)
chain: MGVFAVPPLSSDTLPHSTKERDSELSDTDSGCCLGQSESDKSSTHGEAAAETDSRPADEDMWDETELGLYKVNEYVDARDTNMGAWFEAQVVRVTRKAPSRDEPCSSTSRPALEEDVIYHVKYDDYPENGVVQMNSRDVRARARTIIKWQDLEVGQVVMLNYNPDNPKERGFWYDAEISRKRETRTARELYANVVLGDDSLNDCRIIFVDEVFKIERPGEGSPMVDNPMRRKSGPSCKHCKDDVNRLCRVCACHLCGGRQDPDKQLMCDECDMAFHIYCLDPPLSSVPSEDEWYCPECRNDASEVVLAGERLRESKKKAKMASATSSSQRDWGKGMACVGRTKECTIVPSNHYGPIPGIPVGTMWRFRVQVSESGVHRPHVAGIHGRSNDGAYSLVLAGGYEDDVDHGNFFTYTGSGGRDLSGNKRTAEQSCDQKLTNTNRALALNCFAPINDQEGAEAKDWRSGKPVRVVRNVKGGKNSKYAPAEGNRYDGIYKVVKYWPEKGKSGFLVWRYLLRRDDDEPGPWTKEGKDRIKKLGLTMQYPEGYLEALANREREKENSKREEEEQQEGGFASPRTGKGKWKRKSAGGGPSRAGSPRRTSKKTKVEPYSLTAQQSSLIREDKSNAKLWNEVLASLKDRPASGSPFQLFLSKVEETFQCICCQELVFRPITTVCQHNVCKDCLDRSFRAQVFSCPACRYDLGRSYAMQVNQPLQTVLNQLFPGYGNGR
notes: UHRF1, human, amino acids 14-91 (UBL domain) deleted; also called UHRF1 UBL deletion mutant; source: Sf9, purified
B4: Flag-UHRF1 with the TTD domain deleted (natural protein, human, UniProt Q96T88-2 1-806, looked up)
chain: MGVFAVPPLSSDTMWIQVRTMDGRQTHTVDSLSRLTKVEELRRKIQELFHVEPGLQRLFYRGKQMEDGHTLFDYEVRLNDTIQLLVRQSLVLPHSTKERDSELSDTDSGCCLGQSESDKSSTHGEAAAETDSRPADEDMWDETELGEGSPMVDNPMRRKSGPSCKHCKDDVNRLCRVCACHLCGGRQDPDKQLMCDECDMAFHIYCLDPPLSSVPSEDEWYCPECRNDASEVVLAGERLRESKKKAKMASATSSSQRDWGKGMACVGRTKECTIVPSNHYGPIPGIPVGTMWRFRVQVSESGVHRPHVAGIHGRSNDGAYSLVLAGGYEDDVDHGNFFTYTGSGGRDLSGNKRTAEQSCDQKLTNTNRALALNCFAPINDQEGAEAKDWRSGKPVRVVRNVKGGKNSKYAPAEGNRYDGIYKVVKYWPEKGKSGFLVWRYLLRRDDDEPGPWTKEGKDRIKKLGLTMQYPEGYLEALANREREKENSKREEEEQQEGGFASPRTGKGKWKRKSAGGGPSRAGSPRRTSKKTKVEPYSLTAQQSSLIREDKSNAKLWNEVLASLKDRPASGSPFQLFLSKVEETFQCICCQELVFRPITTVCQHNVCKDCLDRSFRAQVFSCPACRYDLGRSYAMQVNQPLQTVLNQLFPGYGNGR
notes: UHRF1, human, amino acids 146-296 (TTD domain) deleted; also called UHRF1 TTD deletion mutant; source: Sf9, purified
B5: Flag-UHRF1 with the PHD domain deleted (natural protein, human, UniProt Q96T88-2 1-806, looked up)
chain: MGVFAVPPLSSDTMWIQVRTMDGRQTHTVDSLSRLTKVEELRRKIQELFHVEPGLQRLFYRGKQMEDGHTLFDYEVRLNDTIQLLVRQSLVLPHSTKERDSELSDTDSGCCLGQSESDKSSTHGEAAAETDSRPADEDMWDETELGLYKVNEYVDARDTNMGAWFEAQVVRVTRKAPSRDEPCSSTSRPALEEDVIYHVKYDDYPENGVVQMNSRDVRARARTIIKWQDLEVGQVVMLNYNPDNPKERGFWYDAEISRKRETRTARELYANVVLGDDSLNDCRIIFVDEVFKIERPGEGSPMVDNPMRRKSGPSCKHCKDDVASEVVLAGERLRESKKKAKMASATSSSQRDWGKGMACVGRTKECTIVPSNHYGPIPGIPVGTMWRFRVQVSESGVHRPHVAGIHGRSNDGAYSLVLAGGYEDDVDHGNFFTYTGSGGRDLSGNKRTAEQSCDQKLTNTNRALALNCFAPINDQEGAEAKDWRSGKPVRVVRNVKGGKNSKYAPAEGNRYDGIYKVVKYWPEKGKSGFLVWRYLLRRDDDEPGPWTKEGKDRIKKLGLTMQYPEGYLEALANREREKENSKREEEEQQEGGFASPRTGKGKWKRKSAGGGPSRAGSPRRTSKKTKVEPYSLTAQQSSLIREDKSNAKLWNEVLASLKDRPASGSPFQLFLSKVEETFQCICCQELVFRPITTVCQHNVCKDCLDRSFRAQVFSCPACRYDLGRSYAMQVNQPLQTVLNQLFPGYGNGR
notes: UHRF1, human, amino acids 323-379 (PHD domain) deleted; also called UHRF1 PHD deletion mutant; source: Sf9, purified
B6: Flag-UHRF1 with the RING domain deleted (natural protein, human, UniProt Q96T88-2 1-806, looked up)
chain: MGVFAVPPLSSDTMWIQVRTMDGRQTHTVDSLSRLTKVEELRRKIQELFHVEPGLQRLFYRGKQMEDGHTLFDYEVRLNDTIQLLVRQSLVLPHSTKERDSELSDTDSGCCLGQSESDKSSTHGEAAAETDSRPADEDMWDETELGLYKVNEYVDARDTNMGAWFEAQVVRVTRKAPSRDEPCSSTSRPALEEDVIYHVKYDDYPENGVVQMNSRDVRARARTIIKWQDLEVGQVVMLNYNPDNPKERGFWYDAEISRKRETRTARELYANVVLGDDSLNDCRIIFVDEVFKIERPGEGSPMVDNPMRRKSGPSCKHCKDDVNRLCRVCACHLCGGRQDPDKQLMCDECDMAFHIYCLDPPLSSVPSEDEWYCPECRNDASEVVLAGERLRESKKKAKMASATSSSQRDWGKGMACVGRTKECTIVPSNHYGPIPGIPVGTMWRFRVQVSESGVHRPHVAGIHGRSNDGAYSLVLAGGYEDDVDHGNFFTYTGSGGRDLSGNKRTAEQSCDQKLTNTNRALALNCFAPINDQEGAEAKDWRSGKPVRVVRNVKGGKNSKYAPAEGNRYDGIYKVVKYWPEKGKSGFLVWRYLLRRDDDEPGPWTKEGKDRIKKLGLTMQYPEGYLEALANREREKENSKREEEEQQEGGFASPRTGKGKWKRKSAGGGPSRAGSPRRTSKKTKVEPYSLTAQQSSLIREDKSNAKLWNEVLASLKDRPASGSPFQL
notes: UHRF1, human, amino acids 727-806 (RING domain) deleted; also called UHRF1 RING deletion mutant; source: Sf9, purified

Molecular target: T1, Flag-HA-FANCD2 purified from Sf9 cells (human, UniProt Q9BXW9 1-1451)
T1 construct: FANCD2, human, full-length form; also called Flag-HA-tagged FANCD2; source: Sf9, purified (M2 anti-Flag agarose, Flag peptide elution); not shown: Flag, N-terminal, kept; HA, N-terminal, kept
T1 sequence (Q9BXW9 whole entry): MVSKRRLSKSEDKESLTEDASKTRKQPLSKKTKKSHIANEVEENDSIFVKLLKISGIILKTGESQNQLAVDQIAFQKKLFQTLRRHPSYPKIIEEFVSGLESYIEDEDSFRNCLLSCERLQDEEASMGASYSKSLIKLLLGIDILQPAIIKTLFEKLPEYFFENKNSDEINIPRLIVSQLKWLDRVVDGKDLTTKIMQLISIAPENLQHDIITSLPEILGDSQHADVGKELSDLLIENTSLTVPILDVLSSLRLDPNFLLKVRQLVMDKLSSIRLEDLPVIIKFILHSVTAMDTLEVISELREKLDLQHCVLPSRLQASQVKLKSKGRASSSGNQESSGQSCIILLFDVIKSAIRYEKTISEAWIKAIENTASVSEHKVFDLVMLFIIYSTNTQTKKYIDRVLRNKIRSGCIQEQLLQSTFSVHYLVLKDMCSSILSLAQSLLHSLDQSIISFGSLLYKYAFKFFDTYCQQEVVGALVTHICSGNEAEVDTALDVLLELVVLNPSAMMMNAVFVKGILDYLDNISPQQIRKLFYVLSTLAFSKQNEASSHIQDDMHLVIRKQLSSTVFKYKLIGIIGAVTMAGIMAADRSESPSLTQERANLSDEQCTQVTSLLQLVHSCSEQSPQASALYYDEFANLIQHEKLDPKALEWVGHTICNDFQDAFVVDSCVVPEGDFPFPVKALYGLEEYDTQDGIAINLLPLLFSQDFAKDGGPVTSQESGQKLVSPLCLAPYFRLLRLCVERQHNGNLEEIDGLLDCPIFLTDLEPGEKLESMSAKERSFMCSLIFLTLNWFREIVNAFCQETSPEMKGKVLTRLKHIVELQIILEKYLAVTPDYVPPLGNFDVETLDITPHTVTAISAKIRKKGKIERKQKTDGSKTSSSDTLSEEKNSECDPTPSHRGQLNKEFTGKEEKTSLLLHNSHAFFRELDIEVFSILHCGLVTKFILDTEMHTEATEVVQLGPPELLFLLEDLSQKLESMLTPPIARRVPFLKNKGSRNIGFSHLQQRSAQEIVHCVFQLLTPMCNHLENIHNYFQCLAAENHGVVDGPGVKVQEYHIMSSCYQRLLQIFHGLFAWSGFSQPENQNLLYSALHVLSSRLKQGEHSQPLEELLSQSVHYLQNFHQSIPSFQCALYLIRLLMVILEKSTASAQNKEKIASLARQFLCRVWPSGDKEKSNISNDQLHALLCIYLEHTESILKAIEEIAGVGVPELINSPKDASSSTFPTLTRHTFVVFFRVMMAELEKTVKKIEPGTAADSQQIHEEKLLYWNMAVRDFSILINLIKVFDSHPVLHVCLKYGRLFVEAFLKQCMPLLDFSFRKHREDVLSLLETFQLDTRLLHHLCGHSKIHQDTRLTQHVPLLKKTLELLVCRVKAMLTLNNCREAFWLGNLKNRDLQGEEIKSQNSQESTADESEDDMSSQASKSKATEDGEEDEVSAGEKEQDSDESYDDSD
Assay: co-IP; in vitro binding assay: 1μg of each protein with 10μg BSA in 20mM Tris-HCl pH 8.0, 150mM KCl, 10% glycerol, 2mM β-ME, 10μl, 37°C 1h; HA-FANCD2 immunoprecipitated on protein A sepharose with anti-HA IgG at 4°C, washed with 0.1% Tween-20, eluted with HA peptide; immunoblotting
Settings: both partners purified

Binding result, binds:
B1
B2
B3
B4
B5
B6

Molecular target: B2
Assay: co-IP; in vitro binding assay of purified recombinant proteins from Sf9 cells; His-UHRF2 was immunoprecipitated, immunoblotting
Settings: both partners purified

Binding result, binds:
B1
